Our source for the percent of the end-labeled Ndc80 complexes in co-complex with MIND (tenfold excess of GFP-MIND), mean residence time on microtubules and mean residence time of the Ndc80-MIND-GFP co-complex on microtubules with a tenfold excess of the binder values is paper PMC6516834.

In experiment [1] the target is end-labeled Ndc80 complex Nuf2 S2C Spc25 S154C (cysteine-light, concurrently labeled with Cy3 and Alexa Fluor 647, for single molecule FRET) (S. cerevisiae) (UniProt P40460). Description: single molecule three-color TIRF co-localisation; end-labeled Ndc80 complex and GFP-MIND pre-incubated 1:10 for 15 min at room temperature, then tethered by anti-penta-His antibody to lipid-coated coverslips; co-localisation of GFP with Cy3 and Alexa Fluor 647.

The target of experiment [2] is taxol-stabilized microtubules (bovine brain tubulin) (bovine) (UniProt Q6B856). Description: single molecule TIRF microscopy (residence time on microtubules); fluorescent complexes in solution on taxol-stabilized microtubules; standard BRB80 buffer; mean residence time, error by bootstrapping.
The target in experiment [3] is Ndc80-MIND-GFP co-complex (S. cerevisiae) (UniProt P40460). The experiment in a line: single molecule TIRF microscopy (residence time on microtubules); as a1, with free Spc24/Spc25 dimer (wild type or mutant) added in trans: sixtyfold excess over Broccoli-GFP, tenfold excess over Ndc80-MIND-GFP.

free Spc24/Spc25 dimer, sequence (Q04477 whole entry): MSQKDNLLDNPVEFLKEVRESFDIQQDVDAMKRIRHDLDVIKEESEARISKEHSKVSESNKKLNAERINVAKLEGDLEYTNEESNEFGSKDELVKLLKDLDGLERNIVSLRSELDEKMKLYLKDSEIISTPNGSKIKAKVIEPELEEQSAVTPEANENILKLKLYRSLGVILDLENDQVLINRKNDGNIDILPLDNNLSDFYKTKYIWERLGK
free Spc24/Spc25 dimer, sequence (P40014 whole entry): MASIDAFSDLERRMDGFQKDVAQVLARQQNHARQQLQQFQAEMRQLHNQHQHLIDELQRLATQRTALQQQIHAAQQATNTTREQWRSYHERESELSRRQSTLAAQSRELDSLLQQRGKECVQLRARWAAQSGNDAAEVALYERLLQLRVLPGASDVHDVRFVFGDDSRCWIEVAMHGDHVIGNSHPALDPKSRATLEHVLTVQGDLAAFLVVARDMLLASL

With “MIND complex carrying an N-terminal FLAG tag on Nsl1 and a C-terminal GFP on Mtw1 (from UniProt P39731 1-289; Q12143 1-216; P40568 1-576)”, the percent of the end-labeled Ndc80 complexes in co-complex with MIND (tenfold excess of GFP-MIND) in experiment [1] came to 33%.
Take “Ndc80-MIND-GFP co-complex (from UniProt P40460 1-691; P33895 1-451; Q04477 1-213; P40014 1-221; P39731 1-289; P40568 1-576; Q12143 1-216)”: in experiment [2], the mean residence time on microtubules amounted to 9.8 s.
With “Spc24/Spc25 V159D dimer (from UniProt Q04477 1-213; P40014 1-221) (complex)”, the mean residence time of the Ndc80-MIND-GFP co-complex on microtubules with a tenfold excess of the binder in experiment [3] was 4.2 s.
The same measure, in the same setting: the result for “free Spc24/Spc25 dimer (from UniProt Q04477 1-213; P40014 1-221) (complex)” reads 4.1 s.
